How the values were obtained:
[1] = target: human HER3 (human) (UniProt Q02297); test: BLI; presence of human NRG1
[2] = target: human HER3 (UniProt P21860); test: BLI; absence of human NRG1

LJM-716
Kd [1]: 16.8 nM
Kd [2]: < 0.001 nM
